Assay results taken from the supplement of paper PMC11316812.
± gives the standard deviation of the averaged measurements.

What was measured:
MCF7 = assay: percentage of EdU-negative (G0-arrested) nuclei per well, 72 h; higher = more G0 arrest; details: reference: sequence is the full UniProt precursor, the tested protein was the secreted form or ectodomain
hTERT-HMEC = assay: as above; details: reference: sequence is the full UniProt precursor, the tested protein was the secreted form or ectodomain
[1] = protein concentration 0.0225 µM
[2] = protein concentration 0.03125 µM
[3] = protein concentration 0.3125 µM
[4] = protein concentration 0.00625 µM
[5] = protein concentration 0.0625 µM
[6] = protein concentration 0.0115 µM
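Also: secreted proteins added to cultured cells, EdU pulse at the end, nuclei found by Hoechst imaging, EdU status from nuclear versus surrounding ring intensity ratio, PBS as neutral control.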

Sequence	percentage of EdU-negative (MCF7; [1])	percentage of EdU-negative (MCF7; protein concentration 0.225 µM)	percentage of EdU-negative (hTERT-HMEC; [1])	percentage of EdU-negative (hTERT-HMEC; protein concentration 0.225 µM)	other results
MQCRLPRGLAGALLTLLCMGLLCLRYHLNLSPQRVQGTPELSQPNPGPPKLQLHDVFIAVKTTRAFHRLRLELLLDTWVSRTREQTFVFTDSPDKGLQERLGSHLVVTNCSAEHSHPALSCKMAAEFDTFLASGLRWFCHVDDDNYVNPRALLQLLRAFPLARDVYVGRPSLNRPIHASEPQPHNRTRLVQFWFATGGAGFCINRKLALKMAPWASGSRFMDTSALIRLPDDCTMGYIIECKLGGRLQPSPLFHSHLETLQLLRTAQLPEQVTLSYGVFEGKLNVIKLQGPFSPEEDPSRFRSLHCLLYPDTPWCPQLGAR	25.3 ± 2.3%	29.9 ± 2.4%	5.18 ± 0.59%	11.6 ± 0.88%	–
MSSSCSGLSRVLVAVATALVSASSPCPQAWGPPGVQYGQPGRSVKLCCPGVTAGDPVSWFRDGEPKLLQGPDSGLGHELVLAQADSTDEGTYICQTLDGALGGTVTLQLGYPPARPVVSCQAADYENFSCTWSPSQISGLPTRYLTSYRKKTVLGADSQRRSPSTGPWPCPQDPLGAARCVVHGAEFWSQYRINVTEVNPLGASTRLLDVSLQSILRPDPPQGLRVESVPGYPRRLRASWTYPASWPCQPHFLLKFRLQYRPAQHPAWSTVEPAGLEEVITDAVAGLPHAVRVSARDFLDAGTWSTWSPEAWGTPSTGTIPKEIPAWGQLHTQPEVEPQVDSPAPPRPSLQPHPRLLDHRDSVEQVAVLASLGILSFLGLVAGALALGLWLRLRRGGKDGSPKPGFLASVIPVDRRPGAPNL	–	–	–	–	percentage of EdU-negative (MCF7; [2]): 26.9 ± 2%; percentage of EdU-negative (MCF7; [3]): 36.6 ± 0.72%; percentage of EdU-negative (hTERT-HMEC; [2]): 4.53 ± 0.46%; percentage of EdU-negative (hTERT-HMEC; [3]): 11.8 ± 0.14%
MTARAWASWRSSALLLLLVPGYFPLSHPMTVAGPVGGSLSVQCRYEKEHRTLNKFWCRPPQILRCDKIVETKGSAGKRNGRVSIRDSPANLSFTVTLENLTEEDAGTYWCGVDTPWLRDFHDPIVEVEVSVFPAGTTTASSPQSSMGTSGPPTKLPVHTWPSVTRKDSPEPSPHPGSLFSNVRFLLLVLLELPLLLSMLGAVLWVNRPQRSSRSRQNWPKGENQ	26.2 ± 3.7%	23.5 ± 0.75%	5.08 ± 0.64%	12.4 ± 10%	–
MGKSESQMDITDINTPKPKKKQRWTPLEISLSVLVLLLTIIAVTMIALYATYDDGICKSSDCIKSAARLIQNMDATTEPCTDFFKYACGGWLKRNVIPETSSRYGNFDILRDELEVVLKDVLQEPKTEDIVAVQKAKALYRSCINESAIDSRGGEPLLKLLPDIYGWPVATENWEQKYGASWTAEKAIAQLNSKYGKKVLINLFVGTDDKNSVNHVIHIDQPRLGLPSRDYYECTGIYKEACTAYVDFMISVARLIRQEERLPIDENQLALEMNKVMELEKEIANATAKPEDRNDPMLLYNKMTLAQIQNNFSLEINGKPFSWLNFTNEIMSTVNISITNEEDVVVYAPEYLTKLKPILTKYSARDLQNLMSWRFIMDLVSSLSRTYKESRNAFRKALYGTTSETATWRRCANYVNGNMENAVGRLYVEAAFAGESKHVVEDLIAQIREVFIQTLDDLTWMDAETKKRAEEKALAIKERIGYPDDIVSNDNKLNNEYLELNYKEDEYFENIIQNLKFSQSKQLKKLREKVDKDEWISGAAVVNAFYSSGRNQIVFPAGILQPPFFSAQQSNSLNYGGIGMVIGHEITHGFDDNGRNFNKDGDLVDWWTQQSASNFKEQSQCMVYQYGNFSWDLAGGQHLNGINTLGENIADNGGLGQAYRAYQNYIKKNGEEKLLPGLDLNHKQLFFLNFAQVWCGTYRPEYAVNSIKTDVHSPGNFRIIGTLQNSAEFSEAFHCRKNSYMNPEKKCRVW	–	–	–	–	percentage of EdU-negative (MCF7; [4]): 25 ± 1.8%; percentage of EdU-negative (MCF7; [5]): 27.41 ± 0.064%; percentage of EdU-negative (hTERT-HMEC; [4]): 4.08 ± 0.18%; percentage of EdU-negative (hTERT-HMEC; [5]): 5.51 ± 0.24%
MGPISAPSCRWRIPWQGLLLTASLFTFWNPPTTAQLTIEAVPSNAAEGKEVLLLVHNLPQDPRGYNWYKGETVDANRRIIGYVISNQQITPGPAYSNRETIYPNASLLMRNVTRNDTGSYTLQVIKLNLMSEEVTGQFSVHPETPKPSISSNNSNPVEDKDAVAFTCEPETQNTTYLWWVNGQSLPVSPRLQLSNGNRTLTLLSVTRNDVGPYECEIQNPASANFSDPVTLNVLYGPDAPTISPSDTYYHAGVNLNLSCHAASNPPSQYSWSVNGTFQQYTQKLFIPNITTKNSGSYACHTTNSATGRNRTTVRMITVSDALVQGSSPGLSARATVSIMIGVLARVALI	25.7 ± 1.8%	27.4 ± 2.2%	5.19 ± 1.8%	9.55 ± 1.5%	–
MARFWVCVAGAGFFLAFLVLHSRFCGSPVLRNFTFAVSWRTEKILYRLDVGWPKHPEYFTGTTFCVAVDSLNGLVYIGQRGDNIPKILVFTEDGYFLRAWNYTVDTPHGIFAASTLYEQSVWITDVGSGFFGHTVKKYSSFGDLVQVLGTPGKKGTSLNPLQFDNPAELYVEDTGDIYIVDGDGGLNNRLIKLSQDFMILWLHGENGTGPAKFNIPHSVTLDSAGRVWVADRGNKRIQVFDKDTGEWLGAWNNCFTEEGPSSVRFTPDGKYLIVAQLNLSRLSVVAAPPVGSIGECSVISTIQLADQVLPHLLEVDRKTGAVYVAEIGAKQVQKYVPLNSYVPSFGS [Q5JS37]	–	–	–	–	percentage of EdU-negative (MCF7; [6]): 26.8 ± 0.58%; percentage of EdU-negative (MCF7; protein concentration 0.115 µM): 29.3 ± 1.4%; percentage of EdU-negative (hTERT-HMEC; [6]): 4.82 ± 0.15%; percentage of EdU-negative (hTERT-HMEC; protein concentration 0.115 µM): 16.1 ± 0.13%
MAAWSPAAAAPLLRGIRGLPLHHRMFATQTEGELRVTQILKEKFPRATAIKVTDISGGCGAMYEIKIESEEFKEKRTVQQHQMVNQALKEEIKEMHGLRIFTSVPKR [Q53S33]	26.66 ± 0.12%	26.7 ± 1.7%	4.56 ± 0.98%	5.94 ± 0.72%	–
MALSFSLLMAVLVLSYKSICSLGCDLPQTHSLGNRRALILLAQMGRISHFSCLKDRHDFGFPEEEFDGHQFQKAQAISVLHEMIQQTFNLFSTEDSSAAWEQSLLEKFSTELYQQLNDLEACVIQEVGVEETPLMNEDSILAVRKYFQRITLYLTEKKYSPCAWEVVRAEIMRSLSFSTNLQKRLRRKD	–	–	–	–	percentage of EdU-negative (MCF7; [2]): 40.1 ± 1.1%; percentage of EdU-negative (MCF7; [3]): 46.8 ± 1.5%; percentage of EdU-negative (hTERT-HMEC; [2]): 9.16 ± 2.3%; percentage of EdU-negative (hTERT-HMEC; [3]): 13.8 ± 2.7%
